Data reported in US20260167677A1, “ANTI-ADAM10 ANTIBODIES AND USES IN TREATMENT OF CANCER” (Memorial Sloan Kettering Cancer Center, priority 2022, published 2026).

System: human APP
Test: Western blot of APP shedding in U2OS cells transfected with human APP
Type: cell-based
Conditions: 31 nM to 1 μM
Description: U2OS cells transiently transfected with human APP releases the extracellular portion of APP to the media.
The release of sAPPα in the presence of varying concentrations of IHigG/Fab (31 nM to 1 μM) was evaluated using Western blotting. The Western blots were quantitated using the software Image J and glyceraldehyde 3-phosphate dehydrogenase (GAPDH) as loading control. A vector control was included and U20S cells transfected with APP, but untreated, was used to calculate the fold increase in shedding.

B1: 1H5 Fab: Fab fragment of fully human anti-ADAM10 antibody 1H5 (antibody)
heavy: QVQLVESGGGLVKPGGSLRLSCAASGFTFSDYYMSWIRQAPGKGLEWVSYISSSGSTIYYADSVKGRFTISRDNAKNSLYLQMNSLRAEDTAVYYCARDFYDSKIFDYWGQGTLVTVSSASTKGPSVFPLAPSSKSTSGGTAALGCLVKDYFPEPVTVSWNSGALTSGVHTFPAVLQSSGLYSLSSVVTVPSSSLGTQTYICNVNHKPSNTKVDKKVEPKSCDKT
light: DIQMTQSPSSLSASVGDRVTITCRASQSISSYLNWYQQKPGKAPKLLIYAASSLQSGVPSRFSGSGSGTDFTLTISSLQPEDVGVYYCMEGLKTPFTFGPGTKLEIKRTVAAPSVFIFPPSDEQLKSGTASVVCLLNNFYPREAKVQWKVDNALQSGNSQESVTEQDSKDSTYSLSSTLTLSKADYEKHKVYACEVTHQGLSSPVTKSFNRGEC
sAPPα shedding: increase
